The text below walks through data of patent US20260092121A1 (TALEM THERAPEUTICS, published 2026).

Test [1] concerns the target TrkB in PathHunter eXpress TrkB Functional Assay cells (modified U2OS). Put plainly: cell-based or functional assay.
In test [2] the target is T1, human TrkB-His (human, UniProt Q16620 32-430).
T1 construct: in-house fusion of the TrkB ECD with poly-His, HEK293; also called huTrkB-His; hTrkB-His; not shown: poly-His tag
Put plainly: BLI off-rate, mAb immobilized, 300 nM TrkB-His.

The target of test [3] is T1, human TrkB-His. Put plainly: ELISA.

B1: anti-TrkB chicken-derived clone D5 (antibody, V domains shown)
VH: AVTLDESGGGLQTPGGPLSLVCEGSGFTFSSYGMAWVRQAPGKRLEWVASISSTGINAYYGAAVKGRATISRDNGQSTVRLQLNNLRAEDTGIYYCSKCAYSGSCSTSIDAWGHGTEVIVSS
VL: QAALTQPASVSANLGGTVEITCSGGSSGYGYGWYQQKSPGSAPVTVIYNNNNRPSDIPSRFSGSLSDSTHTLTITGVRAEDEAVYFCGAWESSATDIFGAGTTLTVL
notes: chimeric chicken-human mAb
Turning to B1, in test [1], the “TrkB activation (EC50)” value was determined as 180 ng/mL. This molecule also returned a koff with human TrkB-His [2] of 0.000219 s⁻¹.

B2: anti-TrkB chicken-derived clone F1.3 (antibody, V domains shown)
VH: AVTLDESGGGLQTPGGALSLVCKASGFTFSSFPMVWVRQAPGKGLEFVAGIVRTSTPKYGAAVTGRATISRDNGQSTVRLQLNNLRAEDTGTYFCAKSATICGNCPEDIDAWGHGTEVIVSS
VL: QAALTQPASVSANPGETVKITCSGGSSDYGWFQQKSPGSAPVTVIYYSDKRPSDIPSRFSGSTSGSTNTLTITGVQVEDEAVYFCGSGDNSYVGFGAGTTLTVL
notes: chimeric chicken-human mAb
Take B2: the “TrkB activation (EC50)” value in test [1] came out at 380 ng/mL. This molecule gave a koff with human TrkB-His [2] of 0.0156 s⁻¹.

B3: anti-TrkB chicken-derived clone A12 (antibody, V domains shown)
VH: AVTLDESGGGLQTPGGALSLVCKASGFTFSSFPMVWVRQAPGKGLEFVAGIVRTSTPKYGAAVTGRATISRDNGQSTVRLQLNNLRAEDTGTYFCAKSATICGNCPEDIDAWGHGTEVIVSS
VL: QAALTQPASVSANPGETVKITCSGGSSDYGWFQQKSPGSAPVTVIYYSDKRPSDIPSRFSGSASGSMGALIITGVQAEDEAVYFCGSRDSSNVAIFGAGTTLTVL
notes: chimeric chicken-human mAb
Take B3: in test [1], the “TrkB activation (EC50)” value worked out at 4.5 ng/mL. The koff with human TrkB-His [2] is 0.00176 s⁻¹.

B4: anti-TrkB chicken-derived clone B5 (antibody, V domains shown)
VH: AVTLDESGGGLQTPGGALSLVCKASGFTFSSFPMVWVRQAPGKGLEFVAGIVRTSTPKYGAAVTGRATISRDNGQSTVRLQLNNLRAEDTGTYFCAKSATICGNCPEDIDAWGHGTEVIVSS
VL: QAALTQPASVSANPGETVKITCSGGSSDYGWFQQKSPGSAPVTVIYYSDKRPSDIPSRFSGSTSGSMGALIITGVQAEDEAVYFCGSRDSSNVAIFGAGTTLTVL
notes: chimeric chicken-human mAb
For the molecule B4, the “TrkB activation (EC50)” value in test [1] is 8.9 ng/mL. Besides, in the test with human TrkB-His [2], the koff came to 0.00114 s⁻¹.

B5: anti-TrkB chicken-derived clone B4.2 (antibody, V domains shown)
VH: AVTLDESGGGLQTPGGGLSLVCKASGFTFSSYTMQWVRQAPGKGLEWVAGICNDGTTTNYGSAVKGRATISRDNGQSTLRLQLNNLRAEDTGIYFCTRGVDICWNSGNNIDAWGHGTEVIVSS
VL: QAALTQPASVSANPGETVKITCSGGGSYYGSYYYGWYQQKSPGSAPVTVIYNNDKRPSDIPSRFSGSLSGSTNTLTITGVQVEDESVYFCGSKDSSGAGIYGAGTTLTVL
notes: chimeric chicken-human mAb
The molecule B5 showed a koff in the test with human TrkB-His [2] of 0.00136 s⁻¹.

B6: anti-TrkB chicken-derived clone B1.2 (antibody, V domains shown)
VH: AVTLDESGGGLQTPGGGLSLVCKASGFTFSNHQMAWVRQAPGKGLEYVGLINAAGSWTYYGTAVKGRATISRDNGQSTVRLQLNNLRAEDTATYYCAKDVYGYCSTCGATIDTWGHGTEVIVSS
VL: QAALTQPSSVSANPGETVKITCSGPTYDYGWFQQKSPGSAPVTVIYYNDNRPSDIPSRFSGSKSGSTATLTITGVQAEDEAVYYCGTYEDNNGASFGAGTTLTVL
notes: chimeric chicken-human mAb
For B6, the “TrkB activation (EC50)” value in test [1] came to 7.5 ng/mL. The koff in the test with human TrkB-His [2] came to 0.000483 s⁻¹.

B7: KiH.6E08_TrkB × 1A09_CD3 (bispecific antibody)
scFv: QVQLVQSGGGVVQPGRSLRLSCAASGFTFSSYAMHWVRQAPGKGLEWVAVISYDGSNKYYADSVKGRFTISRDNSKNTLYLQMNSLRAEDTAVYYCARAFRRYDAFDIWGQGTLVTVSSSSGGGGSGGGGSGGSALDIQMTQTPLSLSVTLGQPASISCRSSQGLVYSDGNTYLNWFQQRPGQSPRRLIYKVSNRDSGVPDRFSGSGSGTDFTLKISRVEAEDVGVYYCMQGTHWPPAFGQGTKVEIK
VH: EVQLVQSGGGLVKPGGSLRLSCAASGFTFSSYSMNWVRQAPGKGLEWVSSISSSSSYIYYADSVKGRFTISRDNSKNTLYLQMNSLRAEDTAVYYCARVKDYDSSLDYWGQGTLVTVSS
VL: SYELMQPPSVSVSPGQTARITCSGFKLGDKYVSWYQQKPGQSPVLVIYQDSKRPSGIPERFSGSNSGNTATLTISGTQAMDEADYYCQAWDSSTVVFGGGTKLTVL
notes: scFv-knob-Fc (IgG1 T366W/S354C) + Fab-hole-Fc (T366S/L368A/Y407V/Y349C); also called 6E08-1A09
B7: the binding result with human TrkB-His [3] is given as “binds”.

B8: KiH.3C12_TrkB × 1A09_CD3 (bispecific antibody)
scFv: QVQLVQSGAEVKKPGESLKISCKGSGYSFTSYWIGWVRQMPGKGLEWMGIIYPGDSDTRYSPSFQGQVTISADKSISTAYLQWSSLKASDTAMYYCTRSSFNDHWGQGTLVTVSSSSGGGGSGGGGSGGSALQPVLTQPPSVSVSPGQTASITCSGDKLGNKFVSWFQQKPGQSPVLVIYQDTKRPSGIPERFSGSNSGSTATLTITGTQAMDDADYYCQAWNTNTALFGGGTKLTVL
VH: EVQLVQSGGGLVKPGGSLRLSCAASGFTFSSYSMNWVRQAPGKGLEWVSSISSSSSYIYYADSVKGRFTISRDNSKNTLYLQMNSLRAEDTAVYYCARVKDYDSSLDYWGQGTLVTVSS
VL: SYELMQPPSVSVSPGQTARITCSGFKLGDKYVSWYQQKPGQSPVLVIYQDSKRPSGIPERFSGSNSGNTATLTISGTQAMDEADYYCQAWDSSTVVFGGGTKLTVL
notes: scFv-knob-Fc (IgG1 T366W/S354C) + Fab-hole-Fc (T366S/L368A/Y407V/Y349C); also called 3C12-1A09; 3C12/1A09
Consider B8, for which the binding result with human TrkB-His [3] is reported as “binds”.

B9: anti-TrkB chicken-derived clone B11 (antibody, V domains shown)
VH: AVTLDESGGGLQTPGGALSLVCKASGFTFSSFNMFWVRQAPGKGLEFVAHIKRNGGETDYGAAVKGRATISRDDGQSTVRLQLNNLRAEDTATYFCAKDAGDNCRWNYCTTNIDAWGHGTEVIVSS
VL: QAALTQPASVSANPGETVKITCSGGGRWYGTYYYGWYQQKSPGSAPVTVIYSNDKRPSDIPSRFSGSASGSTATLTITGVQADDEAVYYCGSWDSTDTTAFGAGTTLTVL
notes: chimeric chicken-human mAb
Consider B9, for which the “TrkB activation (EC50)” value in test [1] is 0.00086 ng/mL. For the same molecule, the koff with human TrkB-His [2] is 0.00434 s⁻¹.

B10: KiH.3H11_TrkB × 3G07_CD3 (bispecific antibody)
scFv: QVQLQQSGPGLVKPSQTLSLTCAISGDSVSSNSAVWNWIRQSPSRGLEWLGRTYYRSKWYTDFAVSVKSRITINPDTSKNQFSLQLNSVTPEDTAVYYCARGRNGMDVWGQGTMVTVSTSSGGGGSGGGGSGGSALLPVLTQPPSASGTPGQRVTISCSGSSSNIGHKYVYWYQQLPGAAPKLLIYRNNQRPSGVPDRFSASKSGTSASLAISGLRSEDEADYYCATWDDSLNGVVFGGGTKVTVL
VH: QVQLQQSGGGLVQPGGSLRLSCAASGFSFGSSAMSWVRQAPGRGLEWVSGISHSGSTTYYADSVKGRFTISRDNSKNTLYLQMNSLRVEDTAVYYCAKIGAYGYYFHYWGQGTLVTVSS
VL: NFMLTQPHSLSESPGKTVTISCTRSSGSIASKYVQWYQQRPGSAPTTVIYDDKQRPSGVPDRFSGSFDSSSNSASLTISGLKTEDEADYYCQSFDSTNQAVVFGGGTKLTVL
notes: scFv-knob-Fc (IgG1 T366W/S354C) + Fab-hole-Fc (T366S/L368A/Y407V/Y349C); also called 3H11-3G07
For B10, the binding result with human TrkB-His [3] was “binds”.

B11: KiH.6E08_TrkB × 8A05_CD3 (bispecific antibody)
scFv: QVQLVQSGGGVVQPGRSLRLSCAASGFTFSSYAMHWVRQAPGKGLEWVAVISYDGSNKYYADSVKGRFTISRDNSKNTLYLQMNSLRAEDTAVYYCARAFRRYDAFDIWGQGTLVTVSSSSGGGGSGGGGSGGSALDIQMTQTPLSLSVTLGQPASISCRSSQGLVYSDGNTYLNWFQQRPGQSPRRLIYKVSNRDSGVPDRFSGSGSGTDFTLKISRVEAEDVGVYYCMQGTHWPPAFGQGTKVEIK
VH: QVQLQQSGGGLVQSGGSLRLSCAASGFSFGSSAMSWVRQAPGRGLEWVSGISHSGSTTYYADSVKGRFTISRDNSKNTLYLQMNSLRVEDTAVYYCAKIGAYGYYFHYWGQGTLVTVSS
VL: NFMLTQPHSVSESPGKTVTISCTRSGGSIASNYVQWYQQRPGSSPTTVIYDDNQRPSGVPDRFSGSIDSSSNSASLTISGLKTEDEADYYCQSSDNINHVIFGGGTKLTVL
notes: scFv-knob-Fc (IgG1 T366W/S354C) + Fab-hole-Fc (T366S/L368A/Y407V/Y349C); also called 6E08-8A05
Turning to B11, the binding result in the test with human TrkB-His [3] is “binds”.

B12: KiH.3C12_TrkB × 3G07_CD3 (bispecific antibody)
scFv: QVQLVQSGAEVKKPGESLKISCKGSGYSFTSYWIGWVRQMPGKGLEWMGIIYPGDSDTRYSPSFQGQVTISADKSISTAYLQWSSLKASDTAMYYCTRSSFNDHWGQGTLVTVSSSSGGGGSGGGGSGGSALQPVLTQPPSVSVSPGQTASITCSGDKLGNKFVSWFQQKPGQSPVLVIYQDTKRPSGIPERFSGSNSGSTATLTITGTQAMDDADYYCQAWNTNTALFGGGTKLTVL
VH: QVQLQQSGGGLVQPGGSLRLSCAASGFSFGSSAMSWVRQAPGRGLEWVSGISHSGSTTYYADSVKGRFTISRDNSKNTLYLQMNSLRVEDTAVYYCAKIGAYGYYFHYWGQGTLVTVSS
VL: NFMLTQPHSLSESPGKTVTISCTRSSGSIASKYVQWYQQRPGSAPTTVIYDDKQRPSGVPDRFSGSFDSSSNSASLTISGLKTEDEADYYCQSFDSTNQAVVFGGGTKLTVL
notes: scFv-knob-Fc (IgG1 T366W/S354C) + Fab-hole-Fc (T366S/L368A/Y407V/Y349C); also called 3C12-3G07; 3C12/3G07
On to B12, for which the binding result with human TrkB-His [3] was “binds”.

B13: KiH.6E08_TrkB × 3G07_CD3 (bispecific antibody)
scFv: QVQLVQSGGGVVQPGRSLRLSCAASGFTFSSYAMHWVRQAPGKGLEWVAVISYDGSNKYYADSVKGRFTISRDNSKNTLYLQMNSLRAEDTAVYYCARAFRRYDAFDIWGQGTLVTVSSSSGGGGSGGGGSGGSALDIQMTQTPLSLSVTLGQPASISCRSSQGLVYSDGNTYLNWFQQRPGQSPRRLIYKVSNRDSGVPDRFSGSGSGTDFTLKISRVEAEDVGVYYCMQGTHWPPAFGQGTKVEIK
VH: QVQLQQSGGGLVQPGGSLRLSCAASGFSFGSSAMSWVRQAPGRGLEWVSGISHSGSTTYYADSVKGRFTISRDNSKNTLYLQMNSLRVEDTAVYYCAKIGAYGYYFHYWGQGTLVTVSS
VL: NFMLTQPHSLSESPGKTVTISCTRSSGSIASKYVQWYQQRPGSAPTTVIYDDKQRPSGVPDRFSGSFDSSSNSASLTISGLKTEDEADYYCQSFDSTNQAVVFGGGTKLTVL
notes: scFv-knob-Fc (IgG1 T366W/S354C) + Fab-hole-Fc (T366S/L368A/Y407V/Y349C); also called 6E08-3G07
For B13, the binding result with human TrkB-His [3] is given as “binds”.

B14: KiH.3C12_TrkB × 8A05_CD3 (bispecific antibody)
scFv: QVQLVQSGAEVKKPGESLKISCKGSGYSFTSYWIGWVRQMPGKGLEWMGIIYPGDSDTRYSPSFQGQVTISADKSISTAYLQWSSLKASDTAMYYCTRSSFNDHWGQGTLVTVSSSSGGGGSGGGGSGGSALQPVLTQPPSVSVSPGQTASITCSGDKLGNKFVSWFQQKPGQSPVLVIYQDTKRPSGIPERFSGSNSGSTATLTITGTQAMDDADYYCQAWNTNTALFGGGTKLTVL
VH: QVQLQQSGGGLVQSGGSLRLSCAASGFSFGSSAMSWVRQAPGRGLEWVSGISHSGSTTYYADSVKGRFTISRDNSKNTLYLQMNSLRVEDTAVYYCAKIGAYGYYFHYWGQGTLVTVSS
VL: NFMLTQPHSVSESPGKTVTISCTRSGGSIASNYVQWYQQRPGSSPTTVIYDDNQRPSGVPDRFSGSIDSSSNSASLTISGLKTEDEADYYCQSSDNINHVIFGGGTKLTVL
notes: scFv-knob-Fc (IgG1 T366W/S354C) + Fab-hole-Fc (T366S/L368A/Y407V/Y349C); also called 3C12-8A05; 3C12/8A05
Consider B14, for which the binding result with human TrkB-His [3] is given as “binds”.
